Laboratory results published in the DeepSol protein solubility set.

Assay: soluble on expression in E. coli; label from the status in PepcDB or PDB records

Sequence	soluble on expression in E. coli
MCGIVGYIGNNEKKQIILNGLKELEYRGYDSAGMAVMQEGELSFFKAVGKLENLANKCTDFESQGYGFAIGHTRWATHGKPTEINAHPHLGQYSCVIHNGIIENYKEIKDKLEKEGVSFLSQTDTEVIVQLFEFYARNLGVFEAWQKTIKELRGAFATLLVTKKDPNHVYFAKNAAPLIIGKNANKEWYFSSGDAPLIGSCDEVMYLEDLSLGYASKDELVVYENDILKSLCFSKLSGDKAYAKKDGFRFFMEKEIYEQSRVMSEVLMGRIQGDEVVFDELNNEDLSQVDEITLCACGTSYHAAMASAYLFERIAKVKAKVEIASEFRYREAIIKKDSLFIVISQSGETADTLEALKIAKEQGAKTFAICNVDNSNIVRLAHLSLLTRAGIEKGVASTKAFATQVLTLWMLAIFMAQKRNLNVSAEIKALLHTPNCVSVKQALHEKIHRLSKRYLDGHGFFFIGRDVFYPLALEGALKLKELSYLHAEGYPAGEMKHGPIALADSKLYTIALMPKHMLYEKTKSNVEELIARDSTVLSISPLEFDLSDDFIKTNEQDHYMCEFFEMMVITQLLAMEISIRLGNDVDMPRNLAKSVTVE	not soluble
DSMADITACPGTDTCNLGISSSTGLSVEIEKMLLEEFPDTVFNKNIKIKISGCMNACGQHTIGNIGFHGMSIKNGTNVLPAMQVMLGGGLEPDGTGTIADKILKLPTRRCVEAVREILTDYDTNATEGEYFNDYYRRQVAAEKMYFYKLLKPLSDLETLTELDYIDL	not soluble
MKFKELSPSTYAEEFIRSKILVEEDGTAIKSQRELSADLGVSRNAIKYALKRLQYDGDIRIKERQGIEINKKRDINLLSMEPMSKELKQAEMHIKHISSEIIKTPDSLVDFFGNATELAEIKRIRLDDKDVVSFEISYLDNRKFEDIASVNFNECSLYQILENRYGKLPIYGYENITCVLANESLATKLNVKINTPLYQVDSYNYSDDDKAVEHTAQFLPANKIKYHFKAKNIFDYQEDDDDDII	not soluble
ILGPHHLDEYVRVWAEYDPAACGRIHYKDMYSLLRVISPPLGLGKKCPHRVACKRLLRMDLPVADDNTVHFNSTLMALIRTALDIKIAKGGADKQQMDAELRKEMMAIWPNLSQKTLDLLVTPHKSTDLTVGKIYAAMMIMEYYRQSKAKKLQAMREEQDRTPLMFQRMEPPSPTQEGGPGQNALPSTQLDPGGALMAHESGLKESPSWVTQRAQEMFQKTGTWSPE	not soluble
MPRDVQVLPIATNTKVLRARSWSRLRFEIEYALERGTTSNSYVIEGDKTAIIDPPVESFMKIYLEALQQTVNLKKLDYVILGHFSPNRIPTFKALLELAPQITFVCSLPAAGDLRAAFPDDNLNILPMRGKETLDLGKGHVLKFLPIPSPRWPAGLCTYDVQTQILYTDKIFGAHICGDDVFDDNWESFKEDQRYYFNCLMAPHAIHVEAALEKISDLQVRLYAVGHGPLVRTSLIALTQAYADWSKAQKDREISVALLYASAYGNTATIARAIALGLTKGGVAVKSINCEFATPEEIQTNLEQVDGFLIGSPTIGGHAPTPINTALGIVLKVGDNNKLAGVFGSYGWSGEALDMIEGKLRDAGYRFGLDTLKVKFKPDDVTLKFCEEVGTDFAQTLKKAKKVRVPQQAATPVEQAVGRIVGSVCVITAKQGDVSTGMLGSWVSQATFNPPGLTVAIAKERAIESLMYPGGKFALNILSEGNHLEYMKHFRKNFAPGEDRFANFTTTEADNGCTVLADALAYVECSVDQRLECGDHWVVYATVDNGKLLKPDDVTAINHRKTGNHYLEHHHHHH	not soluble
MGSDKIHHHHHHMASTTPEGLEIRPRHLDFDLPDPMPRHWHSGDAFKTHMFNAMSVLFPDGERFFIDSVRHYRERVEDPALKQQIRGFIGQEGHHSREHLVYSDRLRALGYDIDRLEGGAKRRIRFAQQKLHPSRQLAATAALEHLTAIMADGLLSNPRWLEGADPTMARLWRWHALEETEHKAVAYDVFMLVNGKARLRRRAMVQGTFFFALDTTKGLVHMLKRDGLLWNFKVWRDGIKWLWGKDGVFRSLVGVYLDFYKKDFHPWQHNNLHLIEQYRDQFEPEPKAA	not soluble
GPGSMSLVESQKDMADLLPCNEECGGDYGRYSFGQTDTEVIVKVPLPSDTPTKMINVDVKVSSLTIGMKGQSPLISGDLYKPVKVDECTWCVEDKSVLVVTLVKTNAQYEEWWPCVTTNERQIDMKTFRPPSKHISELDDSARATIAKMMFDQRQKALNLPSSDELRLRELMQRGGTSN	soluble
